This note sets out measurements from PMC4760375, “A dual phosphorylation switch controls 14-3-3-dependent cell surface expression of TASK-1” (Journal of Cell Science, 2016).

One test addresses T1, 14-3-3γ (Homo sapiens, UniProt P61981).
T1 construct: Open reading frames encoding human 14-3-3 proteins were inserted into the pMAL2Cx vector at EcoRI and HindIII restriction sites; made in house
T1 sequence (P61981 1-247): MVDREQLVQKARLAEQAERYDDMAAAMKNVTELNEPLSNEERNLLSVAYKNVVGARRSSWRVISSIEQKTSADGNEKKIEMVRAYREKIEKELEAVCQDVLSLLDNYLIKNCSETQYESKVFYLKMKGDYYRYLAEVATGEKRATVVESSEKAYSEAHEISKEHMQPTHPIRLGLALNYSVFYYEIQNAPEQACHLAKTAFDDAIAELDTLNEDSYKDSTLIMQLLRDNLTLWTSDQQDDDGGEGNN
In words: Surface plasmon resonance, 14-3-3γ. The class given is binding. The settings on record: GST fusion captured by anti-GST antibody on chip, phosphorylated on-chip with PKA catalytic subunit; 150 mM NaCl, 20 mM HEPES, 0.005% Tween 20 pH 7.5, 20°C; equilibrium, sigmoidal dose-response fit; ±s.e.m., at least six repeats; read-out: Kd, SPR, 14-3-3γ. The text has this:
(§1) In addition to fluorescence polarization, we used surface plasmon resonance (SPR) as a second, complementary approach to quantify the binding parameters for the TASK-3 C-terminus (Fig. 3, Table 1). […] We developed an on-chip phosphorylation protocol (Fig. 3A) where we first captured the GST fusion proteins on the chip surface with an antibody against GST (which was crosslinked at a high density to the metal surface) and then phosphorylated GST–TASK-3 with recombinantly expressed PKA catalytic subunit (also known as PRKACA; [Knape et al., 2015]). […] Consistent with the results of fluorescence polarization titration, no binding of 14-3-3 proteins was observed prior to on-chip phosphorylation, whereas all 14-3-3 isoforms did bind upon phosphorylation of the TASK-3 C-terminus (Fig. 3C) with equilibrium dissociation constants (Fig. 3D, Table 1) between 45±9 nM (14-3-3γ) to 742±29 nM (14-3-3σ). Depending on the 14-3-3 isoform, these values were very similar (14-3-3η and 14-3-3τ) or differed two- (14-3-3β) to fivefold (14-3-3ε, 14-3-3ζ and 14-3-3σ) from the values determined by fluorescence polarization (Fig. 2, Table 1). […]
(§2) Fig. 3. Affinities of the seven mammalian 14-3-3 isoforms for the phosphorylated TASK-3 C-terminus obtained by surface plasmon resonance are consistent with values obtained using fluorescence polarization. […]
For orientation: Surface plasmon resonance follows binding to a sensor surface in real time, without labels.

In another test the target is T2, 14-3-3σ (Homo sapiens, UniProt P31947).
T2 construct: Open reading frames encoding human 14-3-3 proteins were inserted into the pMAL2Cx vector at EcoRI and HindIII restriction sites; made in house
T2 sequence (P31947 1-248): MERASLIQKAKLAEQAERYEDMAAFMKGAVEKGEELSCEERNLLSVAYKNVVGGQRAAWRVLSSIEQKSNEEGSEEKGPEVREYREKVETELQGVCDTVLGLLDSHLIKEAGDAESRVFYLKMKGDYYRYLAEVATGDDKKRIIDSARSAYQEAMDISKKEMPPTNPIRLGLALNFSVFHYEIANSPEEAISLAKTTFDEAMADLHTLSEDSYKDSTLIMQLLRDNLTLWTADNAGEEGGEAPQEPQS
In words: Surface plasmon resonance, 14-3-3σ. The class given is binding. The settings on record: GST fusion captured by anti-GST antibody on chip, phosphorylated on-chip with PKA catalytic subunit; 150 mM NaCl, 20 mM HEPES, 0.005% Tween 20 pH 7.5, 20°C; equilibrium, sigmoidal dose-response fit; ±s.e.m., at least six repeats; read-out: Kd, SPR, 14-3-3σ.
Source text: as §1, §2

The subject of the next test is 14-3-3 proteins. As to the kind of experiment: Surface plasmon resonance, statements across the 14-3-3 isoforms. The settings on record: SPR, prior to on-chip phosphorylation. The class given is binding, human.
Source text: as §1, §2

No end group written: not given here.

Consider “GST–TASK-3-CT15: Glutathione S-transferase fused to the TASK-3 C-terminal 15 residues, from E. coli, phosphorylated on-chip with PKA (SFTDHQRLMKRRKSV; also: GST fusion, end not given here, phosphorylated with PKA, site not given here)”, for which the Kd (commonly the free concentration of one partner at which half of the binding sites on the other are occupied at equilibrium, for simple one-to-one binding) in the test with 14-3-3γ was 45 ± 9 nM; with 14-3-3σ it was 742 ± 29 nM. For the same substance, the “binding of 14-3-3 proteins (in words)” value with 14-3-3 proteins was “no binding”.
